T1: myostatin (UniProt O14793 267-375, limits assumed)
T1 sequence (looked up): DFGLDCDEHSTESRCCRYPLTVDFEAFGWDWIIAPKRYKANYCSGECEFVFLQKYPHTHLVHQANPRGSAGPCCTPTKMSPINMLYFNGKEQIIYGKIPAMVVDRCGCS


Assays:
FcRn = assay: Biacore FcRn binding
myostatin = molecular target: T1, myostatin; assay: cell-based or functional assay

| Binder | EC50 (FcRn) [nM] | IC50(nM), in vitro cell based myostatin inhibition assay (luciferase reporter, C2C12 pMARE-luc) (myostatin) [nM] |
| --- | --- | --- |
| Fc-Loop TN8-19-7 construct with insertion at H49/E50 (CH2 domain) (Fc fusion, not shown: small tags and cut ends) MDKTHTCPPCPAPELLGGPSVFLFPPKPKDTLMISRTPEVTCVVVDVSHLADHGQCIRWPWMCPPEGWEEDPEVKFNWYVDGVEVHNAKTKPREEQYNSTYRVVSVLTVLHQDWLNGKEYKCKVSNKALPAPIEKTISKAKGQPREPQVYTLPPSRDELTKNQVSLTCLVKGFYPSDIAVEWESNGQPENNYKTTPPVLDSDGSFFLYSKLTVDKSRWQQGNVFSCSVMHEALHNHYTQKSLSLSPGK | ~680 | – |
| Fc-Loop TN8-19-7 construct with insertion at L139/T140 and asymmetric Gly4/Gly6 linkers (CH3 domain) (Fc fusion) MDKTHTCPPCPAPELLGGPSVFLFPPKPKDTLMISRTPEVTCVVVDVSHEDPEVKFNWYVDGVEVHNAKTKPREEQYNSTYRVVSVLTVLHQDWLNGKEYKCKVSNKALPAPIEKTISKAKGQPREPQVYTLPPSRDELGGGGLADHGQCIRWPWMCPPEGWEGGGGGGTKNQVSLTCLVKGFYPSDIAVEWESNGQPENNYKTTPPVLDSDGSFFLYSKLTVDKSRWQQGNVFSCSVMHEALHNHYTQKSLSLSPGK | – | 0.873 |

More lines, now with the values ahead:

| EC50 (FcRn) [nM] | IC50(nM), in vitro cell based myostatin inhibition assay (luciferase reporter, C2C12 pMARE-luc) (myostatin) [nM] | Binder |
| --- | --- | --- |
| ~680 | – | Fc-Loop TN8-19-7 construct with insertion at Y77/N78 (CH2 domain) (Fc fusion, not shown: small tags and cut ends) MDKTHTCPPCPAPELLGGPSVFLFPPKPKDTLMISRTPEVTCVVVDVSHEDPEVKFNWYVDGVEVHNAKTKPREEQYLADHGQCIRWPWMCPPEGWENSTYRVVSVLTVLHQDWLNGKEYKCKVSNKALPAPIEKTISKAKGQPREPQVYTLPPSRDELTKNQVSLTCLVKGFYPSDIAVEWESNGQPENNYKTTPPVLDSDGSFFLYSKLTVDKSRWQQGNVFSCSVMHEALHNHYTQKSLSLSPGK |
| – | 0.834 | Fc-loop TN8-19-07 (clone #6951) (Fc fusion) MDKTHTCPPCPAPELLGGPSVFLFPPKPKDTLMISRTPEVTCVVVDVSHEDPEVKFNWYVDGVEVHNAKTKPREEQYNSTYRVVSVLTVLHQDWLNGKEYKCKVSNKALPAPIEKTISKAKGQPREPQVYTLPPSRDELGGLADHGQCIRWPWMCPPEGWEGGTKNQVSLTCLVKGFYPSDIAVEWESNGQPENNYKTTPPVLDSDGSFFLYSKLTVDKSRWQQGNVFSCSVMHEALHNHYTQKSLSLSPGK |

Reference: US20060140934A1 (Amgen, published 2006)
